Data as given in article PMC6910923, “Novel halo- and thermo-tolerant Cohnella sp. A01 L-glutaminase: heterologous expression and biochemical characterization” (Scientific Reports, 2019).

System: NC(=O)CC[C@H](N)C(=O)O
Assay: purified protein
Details: MgCl2 present, 0-25 mM substrate, standard assay pH 8 phosphate, 50 °C

With rSAM (L-glutaminase) (Cohnella sp.) the Km was 1800 µM.
